Measurements taken from article PMC12021427.

Target: PS2 S-layer protein of Corynebacterium glutamicum 541 (ATCC-13058) (Corynebacterium glutamicum 541 (ATCC-13058))
Assay: cryo-EM structure; single particle cryo-EM of S-layer sheets purified from cells with SDS; 50 mM HEPES/NaOH pH 7.5, 150 mM NaCl, 1 mM MgCl2, 2 mM CaCl2; C6 symmetry; 3.1 Å; lattices still intact after 10 mM EDTA or 10 mM EGTA for 2 h

stoichiometry N: 6
Substance: PS2 S-layer protein of Corynebacterium glutamicum 541 (ATCC-13058) (natural protein)
